Reference: patent US20180208680A1 (published 2018)

What was measured:
[1] = biological target: T1, BoNT/C1 holotoxin (Clostridium botulinum, UniProt P18640 2-1291); assay: IgG KinExA
T1 sequence: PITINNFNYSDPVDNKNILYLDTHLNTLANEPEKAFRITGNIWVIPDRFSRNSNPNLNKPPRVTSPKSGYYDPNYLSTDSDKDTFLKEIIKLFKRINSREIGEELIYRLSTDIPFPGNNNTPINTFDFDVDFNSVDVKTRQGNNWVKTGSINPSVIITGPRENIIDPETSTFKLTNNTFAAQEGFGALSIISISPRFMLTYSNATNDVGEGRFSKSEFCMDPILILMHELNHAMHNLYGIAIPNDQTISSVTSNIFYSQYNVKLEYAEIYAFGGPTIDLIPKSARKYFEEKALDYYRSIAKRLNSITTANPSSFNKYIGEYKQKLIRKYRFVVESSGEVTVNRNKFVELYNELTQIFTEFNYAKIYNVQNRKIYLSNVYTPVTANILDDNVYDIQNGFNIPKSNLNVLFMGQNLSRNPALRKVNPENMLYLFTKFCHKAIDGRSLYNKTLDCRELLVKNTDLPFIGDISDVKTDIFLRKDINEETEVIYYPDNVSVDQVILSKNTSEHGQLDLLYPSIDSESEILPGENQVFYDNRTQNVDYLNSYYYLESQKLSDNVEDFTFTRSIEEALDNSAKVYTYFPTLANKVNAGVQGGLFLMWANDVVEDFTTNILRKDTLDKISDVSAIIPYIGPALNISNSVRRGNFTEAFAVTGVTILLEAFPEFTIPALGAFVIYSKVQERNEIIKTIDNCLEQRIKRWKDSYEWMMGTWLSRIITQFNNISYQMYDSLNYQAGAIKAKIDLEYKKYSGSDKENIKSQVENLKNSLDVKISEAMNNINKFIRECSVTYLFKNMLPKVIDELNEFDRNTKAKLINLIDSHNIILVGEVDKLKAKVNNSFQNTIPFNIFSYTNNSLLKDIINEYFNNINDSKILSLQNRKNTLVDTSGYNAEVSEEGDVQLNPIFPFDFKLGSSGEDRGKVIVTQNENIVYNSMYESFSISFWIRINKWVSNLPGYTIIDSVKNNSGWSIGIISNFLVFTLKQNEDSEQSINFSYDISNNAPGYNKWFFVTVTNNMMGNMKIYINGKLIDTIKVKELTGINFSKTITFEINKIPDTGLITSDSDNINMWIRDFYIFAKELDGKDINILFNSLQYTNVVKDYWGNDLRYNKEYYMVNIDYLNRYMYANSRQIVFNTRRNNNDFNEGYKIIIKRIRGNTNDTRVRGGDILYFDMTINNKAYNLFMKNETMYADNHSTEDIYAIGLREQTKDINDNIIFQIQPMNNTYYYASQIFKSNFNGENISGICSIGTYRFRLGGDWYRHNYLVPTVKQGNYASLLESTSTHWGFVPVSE

[2] = biological target: T2, BoNT/DC mosaic toxin (Clostridium botulinum); assay: yeast scFv FACS
[3] = biological target: T1, BoNT/C1 holotoxin; assay: yeast scFv FACS
[4] = biological target: T1, BoNT/C1 holotoxin; assay: yeast scFv FACS; remark: listed apart in the source
[5] = biological target: T2, BoNT/DC mosaic toxin; assay: IgG KinExA

B1: 8DC1.2 IgG (antibody, V domains shown)
VH: QVTLKESGGGLVQPGRSLTLSCPLSGFTSSDYVLHWVRQAPGTGLDWVAVISSDGTKAYYGDSVKGRFTISRDTSKNTLLLQMNSPRAEDTAIYYCAISTRGPFDIWGHGTMVTVSS
VL: DIQMTQSPSSLSAFVGDRITITCRASRGVSNYLAWYQQKPGKAPKLLIYAASSLQSGVPSRFSGSGSGTEFTLTISGLQPDDFATYYCQQYNAYPLTFGGGTKLEIK
In the case of B1, the Kd [1] is reported as 0.736 nM.

B2: 4C10 scFv (scFv, V domains shown)
VH: QVQLVESGGGAVQPGESLRLSCAASGFTFSGFDMHWVRQSPGRGLEWVARISHDGSMADYADSLRGRFTISRDNPKNTLYLHMNSLRVEDTALYYCAKDRWRSGSYPAFEKWGQGTMVTVSS
VL: QSVPTQPASVSGSPGQSITISCTGTSSDVGAYNYVSWYQQHPGKAPKLMIYDVSDRPSGVSNRFSGSKSGNTASLTISGLQAEDEADYYCSSYTSSSTYVFGTGTKLTVL
Binder B2 has a Kd [2] of 107 nM.

B3: 4C4 scFv (scFv, V domains shown)
VH: QVQLVESGPGLVKPSQTLSLTCSVSGASINNSPYFWNWFRQFPGKGLEWIGYIYWSGSTNYNPSLKSRLAMSVDTSKNQFSLKLTSATAADTAVYYCARDQGGGTVVKENWFDPWGQGTLVTVSS
VL: DIVMTQSPSSLSASVGDRLTMTCQASQDIGKHLNWYQQKAGKPPKLLIYGASNLKTGVPSRFSAGVSWTDFTFTISNVQPEDVATYYCQQSYSTPPTFGQGTKVEIKR
For B3, the Kd [3] was 2.6 nM, the Kd [4] was 3 nM and the Kd [2] was 0.58 nM.

B4: 4C4 IgG (antibody, V domains shown)
VH: B3 VH
VL: DIVMTQSPSSLSASVGDRLTMTCQASQDIGKHLNWYQQKAGKPPKLLIYGASNLKTGVPSRFSAGVSWTDFTFTISNVQPEDVATYYCQQSYSTPPTFGQGTKVEIK
In the case of B4, the Kd [1] is reported as 0.835 nM and the Kd [5] is reported as 0.577 nM.

B5: 4C4.2 scFv (scFv, V domains shown)
VH: B3 VH
VL: DIQMTQSPSTLSASVGDRVTITCRASQSIGTYLNWYQQKPGRAPTLLVSRTSNLHTGVPSRFSGDGSGSHFSLTIDSLQPEDFATYYCQQSHTSPVTFGQGTKVEIKR
Work on B5 yielded a Kd [4] of 1.1 nM and a Kd [2] of 0.13 nM.

B6: 4C4.2 IgG (antibody, V domains shown)
VH: B3 VH
VL: DIQMTQSPSTLSASVGDRVTITCRASQSIGTYLNWYQQKPGRAPTLLVSRTSNLHTGVPSRFSGDGSGSHFSLTIDSLQPEDFATYYCQQSHTSPVTFGQGTKVEIK
Binder B6 has a Kd [1] of 0.035 nM and a Kd [5] of 0.126 nM.

B7: 4C4.1 IgG (antibody, V domains shown)
VH: B3 VH
VL: ETTLTQSPSSLSASVGDRVSITCRASQSISNYLNWYQQKPGKAPKLLIYAASSLQSGVPSRFSGSGSGTDFTLTISSLQPEDFATYYCQQSYSDPPTFGQGTKVEIK
B7 was tested, and the Kd [1] was 0.539 nM and the Kd [5] was 0.058 nM.

B8: 4C4.1 scFv (scFv, V domains shown)
VH: B3 VH
VL: ETTLTQSPSSLSASVGDRVSITCRASQSISNYLNWYQQKPGKAPKLLIYAASSLQSGVPSRFSGSGSGTDFTLTISSLQPEDFATYYCQQSYSDPPTFGQGTKVEIKR
Binder B8 has a Kd [4] of 1.5 nM and a Kd [2] of 0.06 nM.
